Results as given in article PMC2139755.
Several values for one entry are separate records, joined by “and”; a condition that tells them apart may be missing. Identical values can stand only once. Like-named read-outs stand apart in the source and are kept apart here.

Assays:
Experiment in all cases: radioligand binding
[1] = target: receptor for IgE on rat basophilic leukemia cells (RBL-1 cells) (rat (endogenous in RBL-1)) (UniProt P12371)
[2] = target: receptor for IgE on rat basophilic leukemia cells (RBL-1 cells) (rat (endogenous in RBL-1)) (UniProt P12371); remark: listed apart in the source
[3] = target: receptor for IgE on rat basophilic leukemia cells (RBL-1 cells) (rat (endogenous in RBL-1)) (UniProt P12371); remark: listed apart in the source

Chain of UniProt P12371 (P12371 24-245, chain 1 of 3): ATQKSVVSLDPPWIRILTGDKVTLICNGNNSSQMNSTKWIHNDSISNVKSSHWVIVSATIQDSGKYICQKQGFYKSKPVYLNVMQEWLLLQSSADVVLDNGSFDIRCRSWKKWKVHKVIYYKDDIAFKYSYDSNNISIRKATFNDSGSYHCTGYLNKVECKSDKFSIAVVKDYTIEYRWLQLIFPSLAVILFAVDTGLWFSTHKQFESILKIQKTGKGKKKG
Chain of UniProt P12371 (P13386 whole entry, chain 2 of 3, further chain): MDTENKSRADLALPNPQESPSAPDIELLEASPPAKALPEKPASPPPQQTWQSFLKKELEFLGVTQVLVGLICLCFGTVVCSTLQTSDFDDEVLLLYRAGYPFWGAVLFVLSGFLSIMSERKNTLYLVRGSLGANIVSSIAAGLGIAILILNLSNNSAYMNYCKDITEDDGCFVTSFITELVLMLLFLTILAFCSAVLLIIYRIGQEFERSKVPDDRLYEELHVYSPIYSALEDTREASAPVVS
Chain of UniProt P12371 (P20411 19-86, chain 3 of 3, further chain): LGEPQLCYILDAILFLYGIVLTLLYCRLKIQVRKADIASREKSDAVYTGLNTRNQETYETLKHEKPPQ

Ka [1]: 1.2e+10 M⁻¹
koff [1]: 4.7e-06 s⁻¹
kon [1]: 57000 M⁻¹ s⁻¹
Ka [2]: 1.2e+09 M⁻¹
koff [2]: 1.7e-05 s⁻¹
kon [2]: 21000 M⁻¹ s⁻¹
Ka [3]: > 6e+09 M⁻¹ and 6e+09 M⁻¹
half-life of dissociation [3]: 12 h
koff [3]: 1.6e-05 s⁻¹ and 1.4e-05 s⁻¹
percent of the labeled protein bound (active fraction) [3]: 70 to 80%
relative binding at 15 min (% of no additive), Ca++ 2 mM [3]: 92%
relative binding at 15 min (% of no additive), Ca++ 4 mM [3]: 88%
relative binding at 15 min (% of no additive), Ca++ 8 mM [3]: 80%
relative binding at 15 min (% of no additive), Ca++ and Mg++ 2, 2 mM [3]: 86%
relative binding at 15 min (% of no additive), EDTA 4 mM [3]: 98%
relative binding at 15 min (% of no additive), EDTA (4 mM) plus Ca++ 2 mM [3]: 78%
relative binding at 15 min (% of no additive), EDTA (4 mM) plus Ca++ 4 mM [3]: 43%
relative binding at 15 min (% of no additive), EDTA (4 mM) plus Mg++ 2 mM [3]: 85%
relative binding at 15 min (% of no additive), EDTA (4 mM) plus Mg++ 8 mM [3]: 44%
relative binding at 15 min (% of no additive), Mg++ 2 mM [3]: 93%
relative binding at 15 min (% of no additive), Mg++ 4 mM [3]: 89%
relative binding at 15 min (% of no additive), Mg++ 8 mM [3]: 82%
relative binding at 20 min (% of no additive), Al2(SO4)3 0.7 x 10^-7 M [3]: 110%
relative binding at 20 min (% of no additive), Al2(SO4)3 7.0 x 10^-7 M [3]: 108%
relative binding at 20 min (% of no additive), Al2(SO4)3 70 x 10^-7 M [3]: 105%
relative binding at 20 min (% of no additive), heparin 3.3 ug/ml [3]: 101%
relative binding at 20 min (% of no additive), heparin 10 ug/ml [3]: 110%
relative binding at 20 min (% of no additive), heparin 30 ug/ml [3]: 102%
relative binding at 20 min (% of no additive), human serum albumin 0.3 mg/ml [3]: 93%
relative binding at 20 min (% of no additive), phosphatidyl serine 12.5 ug/ml [3]: 105%
relative binding at 20 min (% of no additive), phosphatidyl serine 50 ug/ml [3]: 116%
relative binding at 20 min (% of no additive), phosphatidyl serine 200 ug/ml [3]: 135%
relative binding at 60 min (% of no additive), Al2(SO4)3 0.7 x 10^-7 M [3]: 101%
relative binding at 60 min (% of no additive), Al2(SO4)3 7.0 x 10^-7 M [3]: 97%
relative binding at 60 min (% of no additive), Al2(SO4)3 70 x 10^-7 M [3]: 96%
relative binding at 60 min (% of no additive), heparin 3.3 ug/ml [3]: 99%
relative binding at 60 min (% of no additive), heparin 10 ug/ml [3]: 97%
relative binding at 60 min (% of no additive), heparin 30 ug/ml [3]: 101%
relative binding at 60 min (% of no additive), human serum albumin 0.3 mg/ml [3]: 99%
relative binding at 60 min (% of no additive), phosphatidyl serine 12.5 ug/ml [3]: 112%
relative binding at 60 min (% of no additive), phosphatidyl serine 50 ug/ml [3]: 114%
relative binding at 60 min (% of no additive), phosphatidyl serine 200 ug/ml [3]: 121%
relative binding at 61 min (% of no additive), Ca++ 2 mM [3]: 95%
relative binding at 61 min (% of no additive), Ca++ 4 mM [3]: 91%
relative binding at 61 min (% of no additive), Ca++ 8 mM [3]: 85%
relative binding at 61 min (% of no additive), Ca++ and Mg++ 2, 2 mM [3]: 70%
relative binding at 61 min (% of no additive), EDTA 4 mM [3]: 96%
relative binding at 61 min (% of no additive), EDTA (4 mM) plus Ca++ 2 mM [3]: 88%
relative binding at 61 min (% of no additive), EDTA (4 mM) plus Ca++ 4 mM [3]: 46%
relative binding at 61 min (% of no additive), EDTA (4 mM) plus Mg++ 2 mM [3]: 97%
relative binding at 61 min (% of no additive), EDTA (4 mM) plus Mg++ 8 mM [3]: 53%
relative binding at 61 min (% of no additive), Mg++ 2 mM [3]: 70%
relative binding at 61 min (% of no additive), Mg++ 4 mM [3]: 64%
relative binding at 61 min (% of no additive), Mg++ 8 mM [3]: 62%
Substance: [125I]IgE (IR 162), 125I-labeled rat IgE myeloma protein (antibody)
